Test results: patent US20250145729A1 (DENALI THERAPEUTICS, published 2025)

T1: circularly permuted human TfR apical domain (human)
T1 construct: TfR residues 326-379 stand N-terminal to 194-296, loop 297-325 deleted; also called huTfR Apical Domain
T1 chain: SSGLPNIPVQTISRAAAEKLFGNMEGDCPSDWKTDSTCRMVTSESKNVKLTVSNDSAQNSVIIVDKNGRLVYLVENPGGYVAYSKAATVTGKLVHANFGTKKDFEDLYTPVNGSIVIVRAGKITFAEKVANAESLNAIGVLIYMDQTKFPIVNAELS

T2: circularly permuted cyno TfR apical domain (cynomolgus monkey)
T2 construct: same design as the human construct; also called cyTfR Apical Domain; cynomolgus TfR apical domain
T2 chain: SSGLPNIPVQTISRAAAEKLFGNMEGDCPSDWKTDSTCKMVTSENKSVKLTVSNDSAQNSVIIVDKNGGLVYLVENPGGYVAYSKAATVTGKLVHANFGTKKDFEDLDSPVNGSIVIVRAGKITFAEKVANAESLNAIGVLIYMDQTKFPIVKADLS


Legend:
[1] = biological target: T1, circularly permuted human TfR apical …; experiment: SPR, supernatant, anti-Fab capture
Procedure: (§1) Clones were expressed in HEK293 cells. Supernatants were captured for SPR by GE Healthcare anti-human Fab capture kit and the affinity to human and cyno TfR apical domain was measured (Table 30). The clones in Table 30 were bivalent and each TfR-binding Fc polypeptide also contained P329G and LALA mutations.

[2] = biological target: T2, circularly permuted cyno TfR apical …; experiment: SPR, supernatant, anti-Fab capture
Procedure: as §1

Row | Binder | Kd [1] [µM] | Kd [2] [µM]
1 | 6.5.11.1 (Fc fusion, P329G+LALA) APEAAGGPSVFLFPPKPKDTLMISRTPEVTCVVVDVSHEDPEVKFNWYVDGVEVHNAKTKPREEQYNSTYRVVSVLTVLHQDWLNGKEYKCKVSNKALGAPIEKTISKAKGQPREPQVYTLPPSRDELTKNQVSLTCLVKGFYPSDIAVNWFSNGQIENNYKTTPPVLDSDGSFFLYSKLTVDKSRWQQGNLFACEVMHEALHNHYTYKLLSLSPGK | 10 | –
2 | 42.8.64 (Fc fusion, bivalent; P329G+LALA) APEAAGGPSVFLFPPKPKDTLMISRTPEVTCVVVDVSHEDPEVKFNWYVDGVEVHNAKTKPREEQYNSTYRVVSVLTVLHQDWLNGKEYKCKVSNKALGAPIEKTISKAKGQPREPQVYTLPPSRDELTKNQVSLTCLVKGFYPSDIAVEWFSDDQKLNNYKTTPPVLDSDGSFFLYSKLTVDKSRWQQGNLFACEVMHEALHNHYTYKLLSLSPGK | 5.69 | –
3 | 6.5.11.7.122 (Fc fusion, bivalent; P329G+LALA) APEAAGGPSVFLFPPKPKDTLMISRTPEVTCVVVDVSHEDPEVKFNWYVDGVEVHNAKTKPREEQYNSTYRVVSVLTVLHQDWLNGKEYKCKVSNKALGAPIEKTISKAKGQPREPQVYTLPPSRDELTKNQVSLTCLVKGFYPSDIAVFWFSNGQRENNYKTTPPVLDSDGSFFLYSKLTVDKSRWQQGNLFACEVMHEALHNHYTYKLLSLSPGK | 4.6 | –
4 | 42.8.99 (Fc fusion, bivalent; P329G+LALA) APEAAGGPSVFLFPPKPKDTLMISRTPEVTCVVVDVSHEDPEVKFNWYVDGVEVHNAKTKPREEQYNSTYRVVSVLTVLHQDWLNGKEYKCKVSNKALGAPIEKTISKAKGQPREPQVYTLPPSRDELTKNQVSLTCLVKGFYPSDIAVEWFSEDQKESNYKTTPPVLDSDGSFFLYSKLTVDKSRWQQGNLFACEVMHEALHNHYTYKLLSLSPGK | 6.38 | –
5 | 42.8.77 (Fc fusion, bivalent; P329G+LALA) APEAAGGPSVFLFPPKPKDTLMISRTPEVTCVVVDVSHEDPEVKFNWYVDGVEVHNAKTKPREEQYNSTYRVVSVLTVLHQDWLNGKEYKCKVSNKALGAPIEKTISKAKGQPREPQVYTLPPSRDELTKNQVSLTCLVKGFYPSDIAVEWFSEGQKLTNYKTTPPVLDSDGSFFLYSKLTVDKSRWQQGNLFACEVMHEALHNHYTYKLLSLSPGK | 8.1 | –
6 | 42.8.17 (Fc fusion, bivalent; P329G+LALA) APEAAGGPSVFLFPPKPKDTLMISRTPEVTCVVVDVSHEDPEVKFNWYVDGVEVHNAKTKPREEQYNSTYRVVSVLTVLHQDWLNGKEYKCKVSNKALGAPIEKTISKAKGQPREPQVYTLPPSRDELTKNQVSLTCLVKGFYPSDIAVEWFSGAQKLTNYKTTPPVLDSDGSFFLYSKLTVDKSRWQQGNLFACEVMHEALHNHYTYKLLSLSPGK | 10.4 | –
7 | 42.8.56 (Fc fusion, bivalent; P329G+LALA) APEAAGGPSVFLFPPKPKDTLMISRTPEVTCVVVDVSHEDPEVKFNWYVDGVEVHNAKTKPREEQYNSTYRVVSVLTVLHQDWLNGKEYKCKVSNKALGAPIEKTISKAKGQPREPQVYTLPPSRDELTKNQVSLTCLVKGFYPSDIAVEWFSDASKETNYKTTPPVLDSDGSFFLYSKLTVDKSRWQQGNLFACEVMHEALHNHYTYKLLSLSPGK | 4.83 | 28.4
8 | 42.8.88 (Fc fusion, bivalent; P329G+LALA) APEAAGGPSVFLFPPKPKDTLMISRTPEVTCVVVDVSHEDPEVKFNWYVDGVEVHNAKTKPREEQYNSTYRVVSVLTVLHQDWLNGKEYKCKVSNKALGAPIEKTISKAKGQPREPQVYTLPPSRDELTKNQVSLTCLVKGFYPSDIAVEWFSEAQKLNNYKTTPPVLDSDGSFFLYSKLTVDKSRWQQGNLFACEVMHEALHNHYTYKLLSLSPGK | 9.16 | –
9 | 42.8.55 (Fc fusion, bivalent; P329G+LALA) APEAAGGPSVFLFPPKPKDTLMISRTPEVTCVVVDVSHEDPEVKFNWYVDGVEVHNAKTKPREEQYNSTYRVVSVLTVLHQDWLNGKEYKCKVSNKALGAPIEKTISKAKGQPREPQVYTLPPSRDELTKNQVSLTCLVKGFYPSDIAVEWFSDASKENNYKTTPPVLDSDGSFFLYSKLTVDKSRWQQGNLFACEVMHEALHNHYTYKLLSLSPGK | 6.16 | –
10 | 42.8.57 (Fc fusion, bivalent; P329G+LALA) APEAAGGPSVFLFPPKPKDTLMISRTPEVTCVVVDVSHEDPEVKFNWYVDGVEVHNAKTKPREEQYNSTYRVVSVLTVLHQDWLNGKEYKCKVSNKALGAPIEKTISKAKGQPREPQVYTLPPSRDELTKNQVSLTCLVKGFYPSDIAVEWFSDASKESNYKTTPPVLDSDGSFFLYSKLTVDKSRWQQGNLFACEVMHEALHNHYTYKLLSLSPGK | 4.9 | –
11 | 42.8.63 (Fc fusion, bivalent; P329G+LALA) APEAAGGPSVFLFPPKPKDTLMISRTPEVTCVVVDVSHEDPEVKFNWYVDGVEVHNAKTKPREEQYNSTYRVVSVLTVLHQDWLNGKEYKCKVSNKALGAPIEKTISKAKGQPREPQVYTLPPSRDELTKNQVSLTCLVKGFYPSDIAVEWFSDDQKESNYKTTPPVLDSDGSFFLYSKLTVDKSRWQQGNLFACEVMHEALHNHYTYKLLSLSPGK | 4.19 | 4.94
12 | 42.8.16 (Fc fusion, bivalent; P329G+LALA) APEAAGGPSVFLFPPKPKDTLMISRTPEVTCVVVDVSHEDPEVKFNWYVDGVEVHNAKTKPREEQYNSTYRVVSVLTVLHQDWLNGKEYKCKVSNKALGAPIEKTISKAKGQPREPQVYTLPPSRDELTKNQVSLTCLVKGFYPSDIAVEWFSGAQKLNNYKTTPPVLDSDGSFFLYSKLTVDKSRWQQGNLFACEVMHEALHNHYTYKLLSLSPGK | 7.81 | –

Further lines, results first:

Row | Kd [1] [µM] | Kd [2] [µM] | Binder
13 | 0.22 | 2 | 42.2.3-1H (Fc fusion, P329G+LALA) APEAAGGPSVFLFPPKPKDTLMISRTPEVTCVVVDVSHEDPEVKFNWYVDGVEVHNAKTKPREEQYNSTYRVVSVLTVLHQDWLNGKEYKCKVSNKALGAPIEKTISKAKGQPREPQVYTLPPSRDELTKNQVSLTCLVKGFYPSDIAVEWFYGNAKETNYKTTPPVLDSDGSFFLYSKLTVDKSRWQQGNLFACEVMHEALHNHYTYKLLSLSPGK
14 | 3 | 12.9 | 42.8.71 (Fc fusion, bivalent; P329G+LALA) APEAAGGPSVFLFPPKPKDTLMISRTPEVTCVVVDVSHEDPEVKFNWYVDGVEVHNAKTKPREEQYNSTYRVVSVLTVLHQDWLNGKEYKCKVSNKALGAPIEKTISKAKGQPREPQVYTLPPSRDELTKNQVSLTCLVKGFYPSDIAVEWFSDDSKLTNYKTTPPVLDSDGSFFLYSKLTVDKSRWQQGNLFACEVMHEALHNHYTYKLLSLSPGK
15 | 0.507 | 9.14 | 42.2.1.2 (Fc fusion, bivalent; P329G+LALA) APEAAGGPSVFLFPPKPKDTLMISRTPEVTCVVVDVSHEDPEVKFNWYVDGVEVHNAKTKPREEQYNSTYRVVSVLTVLHQDWLNGKEYKCKVSNKALGAPIEKTISKAKGQPREPQVYTLPPSRDELTKNQVSLTCLVKGFYPSDIAVEWFYDDSKLTNYKTTPPVLDSDGSFFLYSKLTVDKSRWQQGNLFACEVMHEALHNHYTYKLLSLSPGK
16 | 4.07 | 22.2 | 42.8.94 (Fc fusion, bivalent; P329G+LALA) APEAAGGPSVFLFPPKPKDTLMISRTPEVTCVVVDVSHEDPEVKFNWYVDGVEVHNAKTKPREEQYNSTYRVVSVLTVLHQDWLNGKEYKCKVSNKALGAPIEKTISKAKGQPREPQVYTLPPSRDELTKNQVSLTCLVKGFYPSDIAVEWFSEASKLNNYKTTPPVLDSDGSFFLYSKLTVDKSRWQQGNLFACEVMHEALHNHYTYKLLSLSPGK
17 | 2 | – | 6.5.11.5.42 (Fc fusion, P329G+LALA) APEAAGGPSVFLFPPKPKDTLMISRTPEVTCVVVDVSHEDPEVKFNWYVDGVEVHNAKTKPREEQYNSTYRVVSVLTVLHQDWLNGKEYKCKVSNKALGAPIEKTISKAKGQPREPQVYTLPPSRDELTKNQVSLTCLVKGFYPSDIAVYWFSGGQRENNYKTTPPVLDSDGSFFLYSKLTVDKSRWQQGNLFACEVMHEALHNHYTYKLLSLSPGK
18 | 4.13 | 23.1 | 42.8.95 (Fc fusion, bivalent; P329G+LALA) APEAAGGPSVFLFPPKPKDTLMISRTPEVTCVVVDVSHEDPEVKFNWYVDGVEVHNAKTKPREEQYNSTYRVVSVLTVLHQDWLNGKEYKCKVSNKALGAPIEKTISKAKGQPREPQVYTLPPSRDELTKNQVSLTCLVKGFYPSDIAVEWFSEASKLTNYKTTPPVLDSDGSFFLYSKLTVDKSRWQQGNLFACEVMHEALHNHYTYKLLSLSPGK
19 | 0.795 | – | 42.8.172 (Fc fusion, bivalent; P329G+LALA) APEAAGGPSVFLFPPKPKDTLMISRTPEVTCVVVDVSHEDPEVKFNWYVDGVEVHNAKTKPREEQYNSTYRVVSVLTVLHQDWLNGKEYKCKVSNKALGAPIEKTISKAKGQPREPQVYTLPPSRDELTKNQVSLTCLVKGFYPSDIAVEWFYDDQKLNNYKTTPPVLDSDGSFFLYSKLTVDKSRWQQGNLFACEVMHEALHNHYTYKLLSLSPGK
20 | 1.66 | – | 42.8.87 (Fc fusion, bivalent; P329G+LALA) APEAAGGPSVFLFPPKPKDTLMISRTPEVTCVVVDVSHEDPEVKFNWYVDGVEVHNAKTKPREEQYNSTYRVVSVLTVLHQDWLNGKEYKCKVSNKALGAPIEKTISKAKGQPREPQVYTLPPSRDELTKNQVSLTCLVKGFYPSDIAVEWFSEAQKESNYKTTPPVLDSDGSFFLYSKLTVDKSRWQQGNLFACEVMHEALHNHYTYKLLSLSPGK
